This is an account of results in patent US20260274955A1 (JANUX THERAPEUTICS, published 2026).

No end group written: not given here.
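Throughout, for Anti-CD28 Fab signal in the presence of CD28: coated wells pre-incubated with CD28 antigen or with blocking buffer only, then crude clonal phage supernatant added briefly, and retained phage read out via HRP-linked anti-M13 antibody.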

For the first assay, the target named is T1, Anti-CD28 Fab (SEQ ID NOs: 202, 203).
T1 construct: biotinylated and captured on neutravidin coated plates in the phage ELISA
The assay is described as follows: phage binding ELISA, Fab on plate.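 Note: clonal phage supernatant ELISA, wells preincubated with CD28 antigen or blocking buffer only, then bound phage detected using HRP-linked anti-M13 antibody.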
Turning to TCAAGAGWAWPFCF [Phage-1056], the “Anti-CD28 Fab (SEQ ID NOs: 202, 203) signal” value turned out to be 1.65.

For SCAAGATYTWPMCI [Phage-1054], the “Anti-CD28 Fab (SEQ ID NOs: 202, 203) signal” value worked out at 1.66.

For WCAAGAMYPWPLCL [Phage-1049], the “Anti-CD28 Fab (SEQ ID NOs: 202, 203) signal” value was 1.67.

For LCSAGAMYPWPLCY [Phage-1051], the “Anti-CD28 Fab (SEQ ID NOs: 202, 203) signal” value is 1.66.

LCAAGANYPWPACL [Phage-1053]: the “Anti-CD28 Fab (SEQ ID NOs: 202, 203) signal” value was determined as 1.66.

In the case of SCAAGLSYPWPDCL [Phage-1055], the “Anti-CD28 Fab (SEQ ID NOs: 202, 203) signal” value is 1.65.

As to TCAAGAMWVWPTCL [Phage-1052], the “Anti-CD28 Fab (SEQ ID NOs: 202, 203) signal” value was found to be 1.66.

A further assay addresses T2, Ab-1.
T2 construct: also called anti-CD28 scFv harbored in Ab-1
In words: binding ELISA, peptide captured, Ab-1 titrated.
ADWCPRDLWVHCFA (cysteine pairing not given here; also: biotinylated, site not given here) [Peptide-2] came in with an EC50 of 75.9 nM.

Molecule IDWCPRDLWVHCFA (cysteine pairing not given here; also: biotinylated, site not given here) [Peptide-10] yielded an EC50 of 44.9 nM. Compared with the last molecule, the EC50 is about 1.7-fold lower.

Take DDWCPRDLWVHCFA (cysteine pairing not given here; also: biotinylated, site not given here) [Peptide-5]: the EC50 came to 86.8 nM.

For the molecule NDWCPRDLWVHCFA (cysteine pairing not given here; also: biotinylated, site not given here) [Peptide-4], it took 84.3 nM to reach a half-maximal effect (EC50).

Take GDWCPRDLWVHCFA (cysteine pairing not given here; also: biotinylated, site not given here) [Peptide-8]: the EC50 is 73.9 nM.

With HDWCPRDLWVHCFA (cysteine pairing not given here; also: biotinylated, site not given here) [Peptide-9], a half-maximal response (EC50) required 45.4 nM.

As to SDWCPRDLWVHCFA (cysteine pairing not given here; also: biotinylated, site not given here) [Peptide-15], the midpoint of the response, the EC50, lay at 66.5 nM. The EC50 values of the last two molecules are within 1.5-fold of each other.

For PDWCPRDLWVHCFA (cysteine pairing not given here; also: biotinylated, site not given here) [Peptide-14], the EC50 was 102 nM. Compared with the last molecule, the EC50 is about 1.5-fold higher.

Take WDWCPRDLWVHCFA (cysteine pairing not given here; also: biotinylated, site not given here) [Peptide-17]: the EC50 stood at 21.7 nM.

In the case of FDWCPRDLWVHCFA (cysteine pairing not given here; also: biotinylated, site not given here) [Peptide-13], the EC50 came out at 39.3 nM.

LDWCPRDLWVHCFA (cysteine pairing not given here; also: biotinylated, site not given here) [Peptide-11] showed an EC50 of 23.4 nM.

For the next assay, the target named is T2, Ab-1. The assay is described as follows: BLI (Octet), 200 nM peptide, 100 nM Ab-1.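 Note: association and dissociation phases tracked in real time, with kinetics fitted to a 1:1 interaction model.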
For ADWCPRDLWVHCFA (cysteine pairing not given here; also: biotinylated, site not given here) [Peptide-2], the Octet signal was 0.7 and the t1/2 turned out to be 3.1 min.

For the molecule IDWCPRDLWVHCFA (cysteine pairing not given here; also: biotinylated, site not given here) [Peptide-10], the Octet signal was 0.845 and the t1/2 stood at 3.1 min.

DDWCPRDLWVHCFA (cysteine pairing not given here; also: biotinylated, site not given here) [Peptide-5] gave an Octet signal of 0.461 and a t1/2 of 4.2 min.

The molecule NDWCPRDLWVHCFA (cysteine pairing not given here; also: biotinylated, site not given here) [Peptide-4] gave an Octet signal of 0.434 and a t1/2 of 4 min.

GDWCPRDLWVHCFA (cysteine pairing not given here; also: biotinylated, site not given here) [Peptide-8] came in with an Octet signal of 0.479 and a t1/2 of 3.9 min.

In the case of HDWCPRDLWVHCFA (cysteine pairing not given here; also: biotinylated, site not given here) [Peptide-9], the Octet signal amounted to 0.737 and the t1/2 was 3 min.

SDWCPRDLWVHCFA (cysteine pairing not given here; also: biotinylated, site not given here) [Peptide-15] gave an Octet signal of 0.551 and a t1/2 of 2.9 min.

PDWCPRDLWVHCFA (cysteine pairing not given here; also: biotinylated, site not given here) [Peptide-14] yielded an Octet signal of 0.328 and a t1/2 of 3.4 min.

Molecule WDWCPRDLWVHCFA (cysteine pairing not given here; also: biotinylated, site not given here) [Peptide-17] had an Octet signal of 1.15 and a t1/2 of 4.1 min.

The molecule FDWCPRDLWVHCFA (cysteine pairing not given here; also: biotinylated, site not given here) [Peptide-13] showed an Octet signal of 1.01 and a t1/2 of 3.3 min.

Turning to LDWCPRDLWVHCFA (cysteine pairing not given here; also: biotinylated, site not given here) [Peptide-11], the Octet signal came to 1.37 and the t1/2 turned out to be 4.5 min.

The next assay deals with T2, Ab-1. In words: competition ELISA, peptide titrated vs 1 nM Ab-1 binding plate-bound CD28.
Consider ADWCPRDLWVHCFA (cysteine pairing not given here; also: biotinylated, site not given here) [Peptide-2], for which the IC50 came to 2000 nM.

In turn, IDWCPRDLWVHCFA (cysteine pairing not given here; also: biotinylated, site not given here) [Peptide-10] yielded an IC50 of 2660 nM.

For the molecule DDWCPRDLWVHCFA (cysteine pairing not given here; also: biotinylated, site not given here) [Peptide-5], the IC50 came to 4460 nM.

In the case of NDWCPRDLWVHCFA (cysteine pairing not given here; also: biotinylated, site not given here) [Peptide-4], the IC50 was 5030 nM.

On to GDWCPRDLWVHCFA (cysteine pairing not given here; also: biotinylated, site not given here) [Peptide-8], for which the IC50 is 7060 nM.

The molecule HDWCPRDLWVHCFA (cysteine pairing not given here; also: biotinylated, site not given here) [Peptide-9] registered an IC50 of 2180 nM.

SDWCPRDLWVHCFA (cysteine pairing not given here; also: biotinylated, site not given here) [Peptide-15] showed an IC50 of 2630 nM.

With PDWCPRDLWVHCFA (cysteine pairing not given here; also: biotinylated, site not given here) [Peptide-14], the IC50 stood at 8340 nM.

In the case of WDWCPRDLWVHCFA (cysteine pairing not given here; also: biotinylated, site not given here) [Peptide-17], the IC50 is 2800 nM.

As for FDWCPRDLWVHCFA (cysteine pairing not given here; also: biotinylated, site not given here) [Peptide-13], the IC50 came to 780 nM.

LDWCPRDLWVHCFA (cysteine pairing not given here; also: biotinylated, site not given here) [Peptide-11] came in with a half-inhibitory concentration (IC50) of 630 nM.

Another assay has as its target T1, Anti-CD28 Fab (SEQ ID NOs: 202, 203). The assay is described as follows: phage binding ELISA, Fab on plate, CD28 as competitor.
With TCAAGAGWAWPFCF [Phage-1056], the “Anti-CD28 Fab signal in the presence of CD28” value (shortened to “Anti-CD28 Fab signal”) was found to be 0.09.

Take SCAAGATYTWPMCI [Phage-1054]: the “Anti-CD28 Fab signal” value worked out at 0.07.

In the case of WCAAGAMYPWPLCL [Phage-1049], the “Anti-CD28 Fab signal” value came to 0.06.

With LCSAGAMYPWPLCY [Phage-1051], the “Anti-CD28 Fab signal” value was determined as 0.08.

Consider LCAAGANYPWPACL [Phage-1053], for which the “Anti-CD28 Fab signal” value came out at 0.07.

As for SCAAGLSYPWPDCL [Phage-1055], the “Anti-CD28 Fab signal” value came out at 0.07.

As to TCAAGAMWVWPTCL [Phage-1052], the “Anti-CD28 Fab signal” value came to 0.07.

The target in a further assay is anti-CD28 Fab (SEQ ID NOs: 202, 203). In words: phage binding ELISA; biotinylated anti-CD28 Fab captured on neutravidin plate, clonal phage supernatant, anti-M13-HRP detection.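 Note: before crude clonal phage supernatants were added, wells were preincubated with CD28 antigen in blocking buffer or with blocking buffer only.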
For MCAAGAMYNWPLCL [Phage-1224], the “Anti-CD28 Fab (SEQ ID NOs: 202, 203) signal” value is 0.95.

On to TCAAGAKYVWPLCF [Phage-1235], for which the “Anti-CD28 Fab (SEQ ID NOs: 202, 203) signal” value stood at 0.85.

As to VCAAGAAYPWPACL [Phage-1226], the “Anti-CD28 Fab (SEQ ID NOs: 202, 203) signal” value amounted to 0.93.

For SCAAGASYSWPLCF [Phage-1225], the “Anti-CD28 Fab (SEQ ID NOs: 202, 203) signal” value was found to be 0.95.

Regarding SCSAGAMWLWPECF [Phage-1241], the “Anti-CD28 Fab (SEQ ID NOs: 202, 203) signal” value was 0.8.

In the case of TCSAGAMYSWPLCI [Phage-1230], the “Anti-CD28 Fab (SEQ ID NOs: 202, 203) signal” value came out at 0.91.

Turning to LCEAGFNYDWPRCL [Phage-1236], the “Anti-CD28 Fab (SEQ ID NOs: 202, 203) signal” value came to 0.85.

For WCAAFFHYPWPQCF [Phage-1232], the “Anti-CD28 Fab (SEQ ID NOs: 202, 203) signal” value is 0.87.

Consider TCAAGASWDWPFCF [Phage-1237], for which the “Anti-CD28 Fab (SEQ ID NOs: 202, 203) signal” value stood at 0.82.

In the case of TCAAGATWVWPTCF [Phage-1228], the “Anti-CD28 Fab (SEQ ID NOs: 202, 203) signal” value is 0.92.

Turning to TCSAGAMYNWPECF [Phage-1229], the “Anti-CD28 Fab (SEQ ID NOs: 202, 203) signal” value is 0.92.

SCAAGAHWSWPACL [Phage-1223]: the “Anti-CD28 Fab (SEQ ID NOs: 202, 203) signal” value was found to be 0.97.

ECGWEPGQHWRVCF [Phage-1238]: the “Anti-CD28 Fab (SEQ ID NOs: 202, 203) signal” value amounted to 0.82.

Consider LCAAVFAYTWPMCF [Phage-1220], for which the “Anti-CD28 Fab (SEQ ID NOs: 202, 203) signal” value was found to be 0.98.

On to RCKAGVPYKWPMCL [Phage-1233], for which the “Anti-CD28 Fab (SEQ ID NOs: 202, 203) signal” value was 0.87.

Regarding TCSAGAHYPWPMCL [Phage-1227], the “Anti-CD28 Fab (SEQ ID NOs: 202, 203) signal” value is 0.93.

As to SCAAGATYEWPTCL [Phage-1239], the “Anti-CD28 Fab (SEQ ID NOs: 202, 203) signal” value was 0.81.

With WCSAVFSYQWPPCF [Phage-1242], the “Anti-CD28 Fab (SEQ ID NOs: 202, 203) signal” value is 0.78.

Turning to SCAAGATYKWPACF [Phage-1240], the “Anti-CD28 Fab (SEQ ID NOs: 202, 203) signal” value turned out to be 0.8.

Consider QCAAGFSYTWPECY [Phage-1231], for which the “Anti-CD28 Fab (SEQ ID NOs: 202, 203) signal” value was 0.9.

PCAAGAHYVWPVCF [Phage-1221]: the “Anti-CD28 Fab (SEQ ID NOs: 202, 203) signal” value is 0.97.

For TCSAGATYKWPTCL [Phage-1222], the “Anti-CD28 Fab (SEQ ID NOs: 202, 203) signal” value amounted to 0.97.

As for TCAAGATYEWPSCI [Phage-1234], the “Anti-CD28 Fab (SEQ ID NOs: 202, 203) signal” value is 0.86.
